Measured values from PMC2780419.

Biological target: GST-gc-p300/CH1 fusion protein (CH1 domain of grass carp p300) (grass carp (Ctenopharyngodon idella))

gcHIF-1-mediated transactivation of HRE-luciferase activity in CHO cells, change in the presence of gcCITED3a | gcHIF-1-mediated transactivation of HRE-luciferase activity in CHO cells, change in the presence of gcCITED3b | Substance
-40% |  | gcCITED3a (grass carp CITED3a), in vitro translated (natural protein)
 | -40% | gcCITED3b (grass carp CITED3b), in vitro translated (natural protein)
